Source: the supplement of paper PMC6757056
± gives the standard deviation of the averaged measurements.

B1: library; a variant is named by its letters at N, in order (parent)
chain: GCUGUCACCGGUGUAUUACCCUAGUGGUCGACCGGUCUGAUGAGUCUNNNNNNAGACGAAACAGC

Tests used:
hypoxanthine [1] = variants of: B1; assay: FACS-Seq fitted mean relative fluorescence mCherry/BFP without ligand (log10 relative fluorescence); ligand: hypoxanthine (xanthine aptamer); higher = higher reporter protein expression; details: HEK293T, ligand present: no
In short: (§1)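 Fluorescence figures are normalized fitted normal means of sequenced bin counts. Enriched, lentivirally transduced HEK293T libraries with a ribozyme-switch mCherry reporter and EF1α-BFP were held 48 h with or without ligand, then sorted into 6 mCherry/BFP bins. PCR-amplified, barcoded genomic DNA from each bin was sequenced on MiSeq. Means of log10(mCherry/BFP) were scaled to five spiked-in control ribozymes.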

hypoxanthine [2] = variants of: B1; assay: normalized RNA/DNA level with ligand (relative to sTRSVctl = 100) (log10 (% of sTRSVctl)); ligand: hypoxanthine (xanthine aptamer); higher = less ribozyme self-cleavage, higher mRNA level; details: ligand concentration (+) RNA-Seq: 5 mM, HEK293T, reporter: mCherry (pCS4076), ligand present: yes
Description: (§2)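 Hammerhead (sTRSV) ribozyme switch libraries with a ligand aptamer grafted on stem I and a randomized N4-6 loop II, cloned into the 3' UTR of mCherry and transiently transfected into HEK293T cells; RNA-Seq 72 h post transfection with ligand added 1 h before transfection; RNA read count / plasmid DNA read count normalized to the non-cleaving sTRSVctl (x100), log10; sequences with >100 DNA reads. FACS-Seq: lentiviral library sorted into 6 bins after 48 h ligand, log-normal fit mean of mCherry/BFP scaled to controls. Printed sequences are partial switch sequences.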

hypoxanthine [3] = variants of: B1; assay: normalized RNA/DNA level without ligand (relative to sTRSVctl = 100) (log10 (% of sTRSVctl)); ligand: hypoxanthine (xanthine aptamer); higher = less ribozyme self-cleavage, higher mRNA level; details: HEK293T, reporter: mCherry (pCS4076), ligand present: no
Description: as §2

hypoxanthine [4] = variants of: B1; assay: FACS-Seq fitted mean relative fluorescence mCherry/BFP with ligand (log10 relative fluorescence); ligand: hypoxanthine (xanthine aptamer); ligand concentration (+) FACS-Seq: 5 mM; higher = higher reporter protein expression; details: HEK293T, ligand present: yes
In short: as §1

Variant | FACS-Seq fitted mean (log10) (hypoxanthine [1]) | normalized RNA/DNA level with ligand (log10) (hypoxanthine [2]) | normalized RNA/DNA level without ligand (log10) (hypoxanthine [3]) | FACS-Seq fitted mean (log10) (hypoxanthine [4])
GCUGUCACCGGUGUAUUACCCUAGUGGUCGACCGGUCUGAUGAGUCUGCGAUCAGACGAAACAGC | 0.2339 ± 0.00091 | 1.87 ± 0.041 | 1.46 ± 0.038 | 0.601 ± 0.025
GCUGUCACCGGUGUAUUACCCUAGUGGUCGACCGGUCUGAUGAGUCUGCGAUGAGACGAAACAGC | 0.314 ± 0.033 | 1.77 ± 0.028 | 1.24 ± 0.092 | 0.754 ± 0.064
GCUGUCACCGGUGUAUUACCCUAGUGGUCGACCGGUCUGAUGAGUCUGCGAUUAGACGAAACAGC | -0.0877 ± 0.0032 | 1.88 ± 0.06 | 1.65 ± 0.026 | 0.166 ± 0.016
GCUGUCACCGGUGUAUUACCCUAGUGGUCGACCGGUCUGAUGAGUCUACGCAAAGACGAAACAGC | 0.184 ± 0.18 | 1.88 ± 0.022 | 1.55 ± 0.039 | 0.149 ± 0.02
GCUGUCACCGGUGUAUUACCCUAGUGGUCGACCGGUCUGAUGAGUCUACGCAUAGACGAAACAGC | 0.3211 ± 0.00042 | 1.79 ± 0.021 | 1.42 ± 0.032 | 0.534 ± 0.042
GCUGUCACCGGUGUAUUACCCUAGUGGUCGACCGGUCUGAUGAGUCUACGCAGAGACGAAACAGC | -0.302 ± 0.02 | 1.58 ± 0.041 | 1.09 ± 0.044 | 0.377 ± 0.039
GCUGUCACCGGUGUAUUACCCUAGUGGUCGACCGGUCUGAUGAGUCUUCGCAGAGACGAAACAGC | 0.221 ± 0.04 | 1.918 ± 0.015 | 1.65 ± 0.078 | 0.46 ± 0.083
GCUGUCACCGGUGUAUUACCCUAGUGGUCGACCGGUCUGAUGAGUCUUCGCAAAGACGAAACAGC | 0.477 ± 0.093 | 1.9 ± 0.032 | 1.6 ± 0.06 | 0.599 ± 0.058
GCUGUCACCGGUGUAUUACCCUAGUGGUCGACCGGUCUGAUGAGUCUGCGAGUAGACGAAACAGC | 0.238 ± 0.013 | 1.86 ± 0.044 | 1.23 ± 0.059 | 0.662 ± 0.069
GCUGUCACCGGUGUAUUACCCUAGUGGUCGACCGGUCUGAUGAGUCUGCGAGGAGACGAAACAGC | -0.188 ± 0.032 | 1.637 ± 0.015 | 1.11 ± 0.036 | 0.5 ± 0.017
GCUGUCACCGGUGUAUUACCCUAGUGGUCGACCGGUCUGAUGAGUCUGCGCCCAGACGAAACAGC | 0.221 ± 0.029 | 1.95 ± 0.071 | 1.742 ± 0.0061 | 0.44444 ± 0.00011
GCUGUCACCGGUGUAUUACCCUAGUGGUCGACCGGUCUGAUGAGUCUACGAGGAGACGAAACAGC | -0.105 ± 0.022 | 1.412 ± 0.013 | 1.04 ± 0.14 | 0.777 ± 0.034
GCUGUCACCGGUGUAUUACCCUAGUGGUCGACCGGUCUGAUGAGUCUACGAGUAGACGAAACAGC | 0.0593 ± 0.021 | 1.76 ± 0.022 | 1.11 ± 0.047 | 0.609 ± 0.0067
GCUGUCACCGGUGUAUUACCCUAGUGGUCGACCGGUCUGAUGAGUCUCCGAUUAGACGAAACAGC | 0.52 ± 0.04 | 1.963 ± 0.019 | 1.78 ± 0.027 | 0.524 ± 0.036
GCUGUCACCGGUGUAUUACCCUAGUGGUCGACCGGUCUGAUGAGUCUUCGAGUAGACGAAACAGC | -0.023 ± 0.0044 | 1.74 ± 0.037 | 1.2 ± 0.071 | 0.407 ± 0.029
GCUGUCACCGGUGUAUUACCCUAGUGGUCGACCGGUCUGAUGAGUCUCCGCAGAGACGAAACAGC | 0.345 ± 0.031 | 1.82 ± 0.072 | 1.39 ± 0.032 | 0.638 ± 0.042
GCUGUCACCGGUGUAUUACCCUAGUGGUCGACCGGUCUGAUGAGUCUUCGAUCAGACGAAACAGC | 0.537 ± 0.11 | 1.98 ± 0.033 | 1.96 ± 0.031 | 0.59 ± 0.045
GCUGUCACCGGUGUAUUACCCUAGUGGUCGACCGGUCUGAUGAGUCUGCGCAGAGACGAAACAGC | -0.0972 ± 0.035 | 1.58 ± 0.048 | 1.06 ± 0.11 | 0.617 ± 0.052
GCUGUCACCGGUGUAUUACCCUAGUGGUCGACCGGUCUGAUGAGUCUGCGCACAGACGAAACAGC | 0.112 ± 0.061 | 1.8 ± 0.2 | 1.412 ± 0.0031 | 0.0185 ± 0.28
GCUGUCACCGGUGUAUUACCCUAGUGGUCGACCGGUCUGAUGAGUCUACGAUAAGACGAAACAGC | 0.143 ± 0.0029 | 1.87 ± 0.03 | 1.582 ± 0.013 | 0.508 ± 0.011
GCUGUCACCGGUGUAUUACCCUAGUGGUCGACCGGUCUGAUGAGUCUACGAUGAGACGAAACAGC | 0.311 ± 0.018 | 1.734 ± 0.013 | 1.23 ± 0.036 | 0.629 ± 0.079
